B1: α-subunit of the archaeal (Thermoplasma acidophilum) 20S proteasome (natural protein)
chain: MQQGQMAYDRAITVFSPDGRLFQVEYAREAVKKGSTALGMKFANGVLLISDKKVRSRLIEQNSIEKIQLIDDYVAAVTSGLVADARVLVDFARISAQQEKVTYGSLVNIENLVKRVADQMQQYTQYGGVRPYGVSLIFAGIDQIGPRLFDCDPAGTINEYKATAIGSGKDAVVSFLEREYKENLPEKEAVTLGIKALKSSLEEGEELKAPEIASITVGNKYRIYDQEEVKKFL

How the values were obtained:
[1] = target: the molecule itself; assay: native MS; SID-IM-MS on a Synapt G2 with SID device: two most intense charge states isolated, surface-induced dissociation at 150 V, subcomplexes separated by ion mobility; charge reduced with TEAA (0.1/0.9 TEAA/ammonium acetate, v/v)
[2] = target: B1; assay: as above; conditions: both partners purified
[3] = target: α7 ring of the yeast (Saccharomyces cerevisiae) 20S proteasome (yeast (Saccharomyces cerevisiae), UniProt P40302 1-234; P23639 2-250; P21242 1-288; P23638 2-258; P32379 1-260; P21243 …, N-terminal acetylation | N-terminal acetylation | N-terminal acetylation | N-terminal acetylation | N-terminal acetylation | N-terminal acetylation); assay: native MS; intact 20S proteasomes, native IM-MS on a modified Synapt G1; 150 mM ammonium acetate, pH 7, ~3 uM; conditions: both partners purified
[4] = target: PSMA6 subunit of the human 20S proteasome (human (HEK293 cells), UniProt P60900 2-246, N-terminal acetylation); assay: native MS; SID-IM-MS on a Synapt G2 with SID device: two most intense charge states isolated, surface-induced dissociation at 150 V, subcomplexes separated by ion mobility; charge reduced with TEAA (0.1/0.9 TEAA/ammonium acetate, v/v); conditions: both partners purified
[5] = target: PSMA6 subunit of the rat 20S proteasome (rat (Rattus norvegicus), UniProt P60901 2-246, N-terminal acetylation); assay: as above; conditions: both partners purified
PSMA6 subunit of the rat 20S proteasome, sequence (P60901 2-246): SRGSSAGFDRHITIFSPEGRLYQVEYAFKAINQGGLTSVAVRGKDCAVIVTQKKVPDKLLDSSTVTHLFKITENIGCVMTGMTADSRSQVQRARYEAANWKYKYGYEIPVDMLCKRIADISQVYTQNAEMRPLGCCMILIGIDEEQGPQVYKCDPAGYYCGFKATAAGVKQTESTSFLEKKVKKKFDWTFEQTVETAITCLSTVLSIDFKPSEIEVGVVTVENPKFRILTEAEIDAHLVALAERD

PSMA6 subunit of the human 20S proteasome, sequence (P60900 2-246): as the sequence (P60901 2-246) above

Binder	binding result [1]	also measured
β7 ring of the rat 20S proteasome (complex, rat (Rattus norvegicus), N-terminal acetylation | N-terminal acetylation) chain 1: RFSPYAFNGGTVLAIAGEDFSIVASDTRLSEGFSIHTRDSPKCYKLTDKTVIGCSGFHGDCLTLTKIIEARLKMYKHSNNKAMTTGAIAAMLSTILYSRRFFPYYVYNIIEGLDEEGKGAVYSFDPVGSYQRDSFKAGGSASAMLQPLLDNQVGFKNMQNVEHVPLTLDRAMRLVKDVFISAAERDVYTGDALRICIVTKEGIREETVPLRKD chain 2: EYLIGIQGPDYVLVASDRVAASNIVQMKDDHDKMFKMSEKILLLCVGEAGDTVQFAEYIQKNVQLYKMRNGYELSPTAAANFTRRNLADCLRSRTPYHVNLLLAGYDEHEGPALYYMDYLAALAKAPFAAHGYGAFLTLSILDRYYTPTISRERAVELLRKCLEELQKRFILNLPTFSVRVIDKDGIHNLENITFTKRSS chain 3: SVMSYNGGAVMAMKGKNCVAIAADRRFGIQAQMVTTDFQKIFPMGDRLYIGLAGLATDVQTVAQRLKFRLNLYELKEGRQIKPYTLMSMVANLLYEKRFGPYYTEPVIAGLDPKTFKPFICSLDLIGCPMVTDDFVVSGTCSEQMYGMCESLWEPNMDPEHLFETISQAMLNAVDRDAVSGMGVIVHIIEKDKITTRTLKARMD chain 4: TQNPMVTGTSVLGVKFDCGVVIAADMLGSYGSLARFRNISRIMRVNDSTMLGASGDYADFQYLKQVLGQMVIDEELFGDGHSYSPRAIHSWLTRAMYSRRSKMNPLWNTKVIGGYAGGESFLGYVDMLGVAYEAPSLATGYGAYLAQPLLREVLEKQPVLSQTEARELVERCMRVLYYRDARSYNRFQVATVTEKGVEIEGPLSAQTNWDIAHMISGFE chain 5: TTTLAFKFQHGVIVAADSRATAGPYIASQTVKKVIEINPYLLGTMAGGAADCSFWERLLARQCRIYELRNKERISVAAASKLLANMVYQYKGMGLSMGTMICGWDKRGPGLYYVDSEGNRISGTAFSVGSGSVYAFGVMDRGYSYDLQVEEAYDLARRAIYQATYRDAYSGGAVNLYHVREDGWIRVSSDNVADLHDKYTSSIP chain 6: TTIMAVQFDGGVVLGADSRTTTGSYIANRVTDKLTPIHDHIFCCRSGSAADTQAVADAVTYQLGFHSIELNEPPLVHTAASLFKEMCYRYREDLMAGIIIAGWDPQEGGQVYSVPMGGMMVRQSFAIGGSGSSYIYGYVDATYREGMTKDECLQFTANALALAMERDGSSGGVIRLAAIQQSGVERQVLLGDQIPKVTISTLPPP chain 7: TTIAGVVYKDGIVLGADTRATEGMVVADKNCSKIHFISPNIYCCGAGTAADTDMTTQLISSNLELHSLTTGRLPRVVTANRMLKQMLFRYQGYIGAALVLGGVDVTGPHLYSIYPHGSTDKLPYVTMGSGSLAAMAVFEDKFRPDMEEEEAKKLVSEAIAAGIFNDLGSGSNIDLCVISKSKLDFLRPYSVPNKKGTRFGRYRCEKGTTAVLTEKVTPLELEVLEEIVQTMDTS	binds	
β-subunit of the archaeal (Thermoplasma acidophilum) 20S proteasome (natural protein, UniProt P28061 9-211, looked up) TTTVGITLKDAVIMATERRVTMENFIMHKNGKKLFQIDTYTGMTIAGLVGDAQVLVRYMKAELELYRLQRRVNMPIEAVATLLSNMLNQVKYMPYMVQLLVGGIDTAPHVFSIDAAGGSVEDIYASTGSGSPFVYGVLESQYSEKMTVDEGVDLVIRAISAAKQRDSASGGMIDVAVITRKDGYVQLPTDQIESRIRKLGLIL	binds	binding result [2]: binds
β7 ring of the yeast (Saccharomyces cerevisiae) 20S proteasome (complex, N-terminal acetylation) chain 1: QFNPYGDNGGTILGIAGEDFAVLAGDTRNITDYSINSRYEPKVFDCGDNIVMSANGFAADGDALVKRFKNSVKWYHFDHNDKKLSINSAARNIQHLLYGKRFFPYYVHTIIAGLDEDGKGAVYSFDPVGSYEREQCRAGGAAASLIMPFLDNQVNFKNQYEPGTNGKVKKPLKYLSVEEVIKLVRDSFTSATERHIQVGDGLEILIVTKDGVRKEFYELKRD chain 2: MDIILGIRVQDSVILASSKAVTRGISVLKDSDDKTRQLSPHTLMSFAGEAGDTVQFAEYIQANIQLYSIREDYELSPQAVSSFVRQELAKSIRSRRPYQVNVLIGGYDKKKNKPELYQIDYLGTKVELPYGAHGYSGFYTFSLLDHHYRPDMTTEEGLDLLKLCVQELEKRMPMDFKGVIVKIVDKDGIRQVDDFQAQ chain 3: SDPSSINGGIVVAMTGKDCVAIACDLRLGSQSLGVSNKFEKIFHYGHVFLGITGLATDVTTLNEMFRYKTNLYKLKEERAIEPETFTQLVSSSLYERRFGPYFVGPVVAGINSKSGKPFIAGFDLIGCIDEAKDFIVSGTASDQLFGMCESLYEPNLEPEDLFETISQALLNAADRDALSGWGAVVYIIKKDEVVKRYLKMRQD chain 4: TQQPIVTGTSVISMKYDNGVIIAADNLGSYGSLLRFNGVERLIPVGDNTVVGISGDISDMQHIERLLKDLVTENAYDNPLADAEEALEPSYIFEYLATVMYQRRSKMNPLWNAIIVAGVQSNGDQFLRYVNLLGVTYSSPTLATGFGAHMANPLLRKVVDRESDIPKTTVQVAEEAIVNAMRVLYYRDARSSRNFSLAIIDKNTGLTFKKNLQVENMKWDFAKDIKGYGTQKI chain 5: TTTLAFRFQGGIIVAVDSRATAGNWVASQTVKKVIEINPFLLGTMAGGAADCQFWETWLGSQCRLHELREKERISVAAASKILSNLVYQYKGAGLSMGTMICGYTRKEGPTIYYVDSDGTRLKGDIFCVGSGQTFAYGVLDSNYKWDLSVEDALYLGKRSILAAAHRDAYSGGSVNLYHVTEDGWIYHGNHDVGELFWKVKEEEGSFNNVIG chain 6: TSIMAVTFKDGVILGADSRTTTGAYIANRVTDKLTRVHDKIWCCRSGSAADTQAIADIVQYHLELYTSQYGTPSTETAASVFKELCYENKDNLTAGIIVAGYDDKNKGEVYTIPLGGSVHKLPYAIAGSGSTFIYGYCDKNFRENMSKEETVDFIKHSLSQAIKWDGSSGGVIRMVVLTAAGVERLIFYPDEYEQL chain 7: TTIVGVKFNNGVVIAADTRSTQGPIVADKNCAKLHRISPKIWCAGAGTAADTEAVTQLIGSNIELHSLYTSREPRVVSALQMLKQHLFKYQGHIGAYLIVAGVDPTGSHLFSIHAHGSTDVGYYLSLGSGSLAAMAVLESHWKQDLTKEEAIKLASDAIQAGIWNDLGSGSNVDVCVMEIGKDAEYLRNYLTPNVREEKQKSYKFPRGTTAVLKESIVNICDIQEEQVDITA	binds	binding result [3]: binds
B1	binds	
PSMA2 subunit of the human 20S proteasome (natural protein, human (HEK293 cells), UniProt P25787 2-234, looked up, N-terminal acetylation) AERGYSFSLTTFSPSGKLVQIEYALAAVAGGAPSVGIKAANGVVLATEKKQKSILYDERSVHKVEPITKHIGLVYSGMGPDYRVLVHRARKLAQQYYLVYQEPIPTAQLVQRVASVMQEYTQSGGVRPFGVSLLICGWNEGRPYLFQSDPSGAYFAWKATAMGKNYVNGKTFLEKRYNEDLELEDAIHTAILTLKESFEGQMTEDNIEVGICNEAGFRRLTPTEVKDYLAAIA		binding result [4]: binds
PSMA2 subunit of the rat 20S proteasome (natural protein, rat (Rattus norvegicus), UniProt P17220 2-234, looked up, N-terminal acetylation) AERGYSFSLTTFSPSGKLVQIEYALAAVAGGAPSVGIKAANGVVLATEKKQKSILYDERSVHKVEPITKHIGLVYSGMGPDYRVLVHRARKLAQQYYLVYQEPIPTAQLVQRVASVMQEYTQSGGVRPFGVSLLICGWNEGRPYLFQSDPSGAYFAWKATAMGKNYVNGKTFLEKRYNEDLELEDAIHTAILTLKESFEGQMTEDNIEVGICNEAGFRRLTPTEVRDYLAAIA		binding result [5]: binds
